Source: US20240270857A1 (CHIA TAI TIANQING PHARMACEUTICAL GROUP, published 2024)
Like-named read-outs stand apart in the source and are kept apart here.

T1: IL-36R naturally expressed on OVCAR8 cells and on normal human epidermal keratinocytes (NHK cells) (human, UniProt Q9HB29 20-575)
T1 sequence (looked up): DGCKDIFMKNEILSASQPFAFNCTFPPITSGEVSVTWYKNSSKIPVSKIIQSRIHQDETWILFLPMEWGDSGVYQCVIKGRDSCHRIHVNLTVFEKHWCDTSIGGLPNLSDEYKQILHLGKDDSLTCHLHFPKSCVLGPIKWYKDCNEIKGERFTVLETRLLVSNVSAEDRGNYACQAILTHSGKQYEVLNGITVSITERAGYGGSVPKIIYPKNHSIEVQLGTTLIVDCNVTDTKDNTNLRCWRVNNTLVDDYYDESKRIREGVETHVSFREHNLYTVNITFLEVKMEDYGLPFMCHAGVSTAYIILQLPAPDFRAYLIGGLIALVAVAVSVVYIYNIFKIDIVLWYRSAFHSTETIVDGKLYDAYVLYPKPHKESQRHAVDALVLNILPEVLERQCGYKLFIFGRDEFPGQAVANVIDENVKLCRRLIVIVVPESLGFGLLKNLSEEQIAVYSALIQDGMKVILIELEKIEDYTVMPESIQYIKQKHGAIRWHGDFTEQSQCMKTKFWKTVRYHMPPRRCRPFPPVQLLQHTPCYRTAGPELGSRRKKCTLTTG

T2: human IL-36R overexpressed on 293T-hIL36R-NFκB cells (human, UniProt Q9HB29 20-575)
T2 sequence: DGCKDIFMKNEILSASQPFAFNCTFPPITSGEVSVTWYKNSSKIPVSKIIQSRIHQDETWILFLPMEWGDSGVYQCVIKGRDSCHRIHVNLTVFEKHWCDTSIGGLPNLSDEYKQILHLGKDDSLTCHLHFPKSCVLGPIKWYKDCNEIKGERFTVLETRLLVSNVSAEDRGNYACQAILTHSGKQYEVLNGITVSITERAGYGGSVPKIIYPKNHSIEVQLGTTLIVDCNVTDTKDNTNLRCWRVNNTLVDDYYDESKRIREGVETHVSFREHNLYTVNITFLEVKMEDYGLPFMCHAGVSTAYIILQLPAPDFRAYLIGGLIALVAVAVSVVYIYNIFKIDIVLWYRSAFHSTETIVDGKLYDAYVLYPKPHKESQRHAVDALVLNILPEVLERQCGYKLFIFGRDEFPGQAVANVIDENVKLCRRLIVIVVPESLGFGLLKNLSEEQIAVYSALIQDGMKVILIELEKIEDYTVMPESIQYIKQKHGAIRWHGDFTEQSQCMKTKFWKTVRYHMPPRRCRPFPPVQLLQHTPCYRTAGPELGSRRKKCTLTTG

T3: Human IL-1Rrp2/IL-1R6 protein, His Tag (ACROBiosystems, IL2-H52H6) (human, UniProt Q9HB29 20-335)
T3 construct: Bought protein; the soluble protein is likely only the extracellular part; also called hIL-36R; human IL36R antigen; not shown: His tag
T3 sequence: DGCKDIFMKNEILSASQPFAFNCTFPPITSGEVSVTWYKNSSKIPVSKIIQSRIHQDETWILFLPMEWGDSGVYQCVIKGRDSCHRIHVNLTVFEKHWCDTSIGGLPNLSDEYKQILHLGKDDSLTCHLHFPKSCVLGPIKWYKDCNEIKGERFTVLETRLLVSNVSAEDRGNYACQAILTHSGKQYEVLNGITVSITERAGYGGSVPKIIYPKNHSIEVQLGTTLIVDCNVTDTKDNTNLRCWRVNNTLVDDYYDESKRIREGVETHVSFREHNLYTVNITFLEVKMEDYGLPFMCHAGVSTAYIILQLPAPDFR

T4: cynomolgus IL-36R overexpressed on 293T-CynoIL36R-NFκB cells (cynomolgus monkey)
T4 chain: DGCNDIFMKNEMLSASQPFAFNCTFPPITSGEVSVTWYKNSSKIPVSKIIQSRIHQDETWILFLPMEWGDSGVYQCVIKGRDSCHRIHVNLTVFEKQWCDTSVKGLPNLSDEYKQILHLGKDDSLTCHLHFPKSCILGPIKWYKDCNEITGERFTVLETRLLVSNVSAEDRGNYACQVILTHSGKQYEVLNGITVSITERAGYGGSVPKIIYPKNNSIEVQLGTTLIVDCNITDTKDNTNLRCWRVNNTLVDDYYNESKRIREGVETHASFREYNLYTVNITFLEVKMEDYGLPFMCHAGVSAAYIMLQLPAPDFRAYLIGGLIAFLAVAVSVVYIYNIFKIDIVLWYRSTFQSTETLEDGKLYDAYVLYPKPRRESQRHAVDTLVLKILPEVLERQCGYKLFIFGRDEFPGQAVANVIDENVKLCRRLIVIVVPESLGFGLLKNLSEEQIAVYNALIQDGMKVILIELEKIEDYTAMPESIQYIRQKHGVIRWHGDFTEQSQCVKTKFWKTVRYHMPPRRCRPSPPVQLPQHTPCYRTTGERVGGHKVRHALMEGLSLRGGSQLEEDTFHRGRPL


Legend:
[1] = target: T1, IL-36R naturally expressed on OVCAR8 …; assay: cell-based or functional assay
[2] = target: T1, IL-36R naturally expressed on OVCAR8 …; assay: cell-based or functional assay; remark: listed apart in the source
[3] = target: T2, human IL-36R overexpressed on …; assay: cell-based or functional assay
[4] = target: T3, Human IL-1Rrp2/IL-1R6 protein, His Tag …; assay: BLI (ForteBio Octet), antibody on ProA sensor, 1:1 model
Description: (§1) The affinity of anti-IL-36R antibodies to CynoIL36R-ECD mFc and human IL-1Rrp2/IL-IR6 protein, His Tag (ACROBiosystems, IL2-H52H6) was measured by a ForteBio molecular interaction instrument. […] And then the biosensor was used to bind CynoIL36R-ECD mFc or human IL-1Rrp2/IL-1R6 protein, His Tag which was diluted by a gradient (the initial concentration was 200 nM, 2-fold gradient dilution), the response signals were detected in real time using a Fortebio molecular interaction instrument (SARTORIUS, octet red 96e), and association and dissociation curves were obtained. After the completion of dissociation in each cycle, the biosensor was regenerated for the next capture; the procedure was repeated until the affinity of the different anti-IL-36R antibodies for IL-36R was determined. The resulting data were analyzed by Fortebio Data Analysis 11.0 software in a 1:1 (Langmuir) binding model to determine kₐ (kₒₙ) and kd (koff) values, and the dissociation constant KD was calculated by KD=kd/kₐ. The detection method essentially followed the manufacturer's recommendations, and more information could be found at www.fortebio.com.

[5] = target: T2, human IL-36R overexpressed on …; assay: cell-based or functional assay; remark: listed apart in the source
[6] = target: T2, human IL-36R overexpressed on …; assay: cell-based or functional assay; remark: listed apart in the source
[7] = target: T4, cynomolgus IL-36R overexpressed on …; assay: cell-based or functional assay
[8] = target: T2, human IL-36R overexpressed on …; assay: cell-based or functional assay; remark: listed apart in the source
[9] = target: T4, cynomolgus IL-36R overexpressed on …; assay: cell-based or functional assay
[10] = target: T1, IL-36R naturally expressed on OVCAR8 …; assay: cell-based or functional assay; remark: listed apart in the source
[11] = target: T3, Human IL-1Rrp2/IL-1R6 protein, His Tag …; assay: BLI (ForteBio Octet), antibody on ProA sensor, 1:1 model; remark: listed apart in the source
Description: as §1

Binder	IC50; IL-8 production of OVCAR8 cells stimulated with hIL36β, inhibition rate % [1] [nM]	IC50; IL-8 production of OVCAR8 cells stimulated with hIL36α, inhibition rate % [2] [nM]	IC50; NFκB-luciferase reporter in 293T-hIL36R-NFκB cells stimulated with hIL36α, inhibition rate % [3] [nM]	Kd [4] [nM]	koff [4] [s⁻¹]	kon [4] [M⁻¹ s⁻¹]	IC50; NFκB-luciferase reporter in 293T-hIL36R-NFκB cells stimulated with hIL36β, inhibition rate % [5] [nM]	IC50; NFκB-luciferase reporter in 293T-hIL36R-NFκB cells stimulated with hIL36γ, inhibition rate % [6] [nM]	IC50; NFκB-luciferase reporter in 293T-CynoIL36R-NFκB cells stimulated with hIL36α, inhibition rate % [7] [nM]	IC50; NFκB-luciferase reporter in 293T-hIL36R-NFκB cells stimulated with hIL36α, inhibition rate % [8] [nM]	IC50; NFκB-luciferase reporter in 293T-CynoIL36R-NFκB cells stimulated with hIL36γ, inhibition rate % [9] [nM]	IC50; IL-8 production of OVCAR8 cells stimulated with hIL36γ, inhibition rate % [10] [nM]	Kd [11] [nM]	koff [11] [s⁻¹]	kon [11] [M⁻¹ s⁻¹]
chimeric 84C4 antibody (antibody, human IgG4 S228P, kappa, Mouse variable regions on human IgG4 / kappa; also called xi84C4) heavy: not shown light: DILMTQSPSSLSASLGERVSLTCRASQDIGNALNWLQQAPDGTIKRLIYATSSLDPGVPKRFSGSRSGSDYSLTISSLASEDFVYYYCLQYASSPYTFGGGTKLEIKRTVAAPSVFIFPPSDEQLKSGTASVVCLLNNFYPREAKVQWKVDNALQSGNSQESVTEQDSKDSTYSLSSTLTLSKADYEKHKVYACEVTHQGLSSPVTKSFNRGEC	0.113	0.0181	3.25	0.66	7e-05	106000	2.79								
BI655130 (antibody, human IgG1, kappa, L234A L235A, also called Spesolimab) heavy: not shown light: QIVLTQSPGTLSLSPGERATMTCTASSSVSSSYFHWYQQKPGQAPRLWIYRTSRLASGVPDRFSGSGSGTDFTLTISRLEPEDAATYYCHQFHRSPLTFGAGTKLEIKRTVAAPSVFIFPPSDEQLKSGTASVVCLLNNFYPREAKVQWKVDNALQSGNSQESVTEQDSKDSTYSLSSTLTLSKADYEKHKVYACEVTHQGLSSPVTKSFNRGEC	0.0861	0.0927	6.09	0.22	1.29e-05	58600	2.45	4.74	27.7	3.62	11.8	0.0405	0.245	1.57e-05	64100
chimeric 72C1 antibody (antibody, human IgG4 S228P, kappa, Mouse variable regions on human IgG4 / kappa; also called xi72C1) heavy: not shown light: EILLTQSPAIMSATLGEKVTMSCRASSNVRYMYWYQLKSGASPKLWIYLTSNLASGVPARFSGSGSGTSYSLTISSVEAEDAATYFCQQFTTSPYTFGGGTKLEIKRTVAAPSVFIFPPSDEQLKSGTASVVCLLNNFYPREAKVQWKVDNALQSGNSQESVTEQDSKDSTYSLSSTLTLSKADYEKHKVYACEVTHQGLSSPVTKSFNRGEC								10.5	3.32	8	2.38	0.0555	0.736	4.38e-05	59600
